Results on four sequences are retold here after the supplement of paper PMC5998384.

In data set [1] the test system is HeLa Kyoto. The data set is described as follows: thermal stability score vs G1/S (z-score of summed log2 fold changes over temperatures); higher = more thermally stable than in G1/S.
Data set [2] concerns HeLa Kyoto. The data set is described as follows: solubility in G1/S (NP-40 vs SDS abundance) (log2 ratio); higher = more soluble. The note with it: cell cycle stage: G1/S.
In data set [3] the test system is HeLa Kyoto. The data set is described as follows: melting temperature (median over replicates), in situ; higher = more thermally stable.
Data set [4] concerns HeLa Kyoto. The data set is described as follows: solubility change mitosis vs G1/S (difference of NP-40 vs SDS log2 ratios) (log2 ratio difference); higher = more soluble in mitosis.
The mark [5] stands for this setting: cell cycle stage: early G1 (4.5 h after nocodazole release).
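Wherever melting temperature (median over replicates), in situ is given: HeLa Kyoto cells synchronized by double thymidine or nocodazole block, proteins quantified by TMT10plex mass spectrometry, three independent biological replicates.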
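Wherever solubility change mitosis vs G1/S (difference of NP-40 vs SDS log2 ratios) is given: synchronized HeLa Kyoto cells (double thymidine block for G1/S, nocodazole release for mitosis), protein amounts in NP-40 versus SDS lysates quantified by mass spectrometry, three biological replicates.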
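Wherever solubility in G1/S (NP-40 vs SDS abundance) is given: HeLa Kyoto cells arrested at G1/S by double thymidine block, proteins quantified by TMT10plex mass spectrometry in mild NP-40 versus SDS extracts, three biological replicates.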
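Wherever thermal stability score vs G1/S (z-score of summed log2 fold changes over temperatures) is given: synchronized HeLa Kyoto cells, proteins quantified by TMT10plex mass spectrometry, three biological replicates, mitosis taken 0.5 h after nocodazole release, G1/S directly after double thymidine block.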

As to “MLRSGPASGPSVPTGRAMPSRRVARPPAAPELGALGSPDLSSLSLAVSRSTDELEIIDEYIKENGFGLDGGQPGPGEGLPRLVSRGAASLSTVTLGPVAPPATPPPWGCPLGRLVSPAPGPGPQPHLVITEQPKQRGMRFRYECEGRSAGSILGESSTEASKTLPAIELRDCGGLREVEVTACLVWKDWPHRVHPHSLVGKDCTDGICRVRLRPHVSPRHSFNNLGIQCVRKKEIEAAIERKIQLGIDPYNAGSLKNHQEVDMNVVRICFQASYRDQQGQMRRMDPVLSEPVYDKKSTNTSELRICRINKESGPCTGGEELYLLCDKVQKEDISVVFSRASWEGRADFSQADVHRQIAIVFKTPPYEDLEIVEPVTVNVFLQRLTDGVCSEPLPFTYLPRDHDSYGVDKKRKRGMPDVLGELNSSDPHGIESKRRKKKPAILDHFLPNHGSGPFLPPSALLPDPDFFSGTVSLPGLEPPGGPDLLDDGFAYDPTAPTLFTMLDLLPPAPPHASAVVCSGGAGAVVGETPGPEPLTLDSYQAPGPGDGGTASLVGSNMFPNHYREAAFGGGLLSPGPEAT [RELB]”, the thermal stability score came out at 0.0562 in the data set with HeLa Kyoto [1] (setting [5]) and 0.606 in the data set on HeLa Kyoto [1] (cell cycle stage: mitosis). In addition, the “solubility in G1/S (log2)” value in the data set with HeLa Kyoto [2] was -0.0253. In the data set on HeLa Kyoto [3] (cell cycle stage: mitosis), this sequence showed a melting temperature of 50.1 °C. Further, in the data set on HeLa Kyoto [4], the “solubility change mitosis (log2)” value was -0.12.
For the sequence “MLSRPKPGESEVDLLHFQSQFLAAGAAPAVQLVKKGNRGGGDANSDRPPLQDHRDVVMLDNLPDLPPALVPSPPKRARPSPGHCLPEDEDPEERLRRHDQHITAVLTKIIERDTSSVAVNLPVPSGVAFPAVFLRSRDTQGKSATSGKRSIFAQEIAARRIAEAKGPSVGEVVPNVGPPEGAVTCETPTPRNQGCQLPGSSHSFQGPNLVTGKGLRDQEAEQEAQTIHEENIARLQAMAPEEILQEQQRLLAQLDPSLVAFLRSHSHTQEQTGETASEEQRPGGPSANVTKEEPLMSAFASEPRKRDKLEPEAPALALPVTPQKEWLHMDTVELEKLHWTQDLPPVRRQQTQERMQARFSLQGELLAPDVDLPTHLGLHHHGEEAERAGYSLQELFHLTRSQVSQQRALALHVLAQVISRAQAGEFGDRLAGSVLSLLLDAGFLFLLRFSLDDRVDGVIATAIRALRALLVAPGDEELLDSTFSWYHGALTFPLMPSQEDKEDEDEDEECPAGKAKRKSPEEESRPPPDLARHDVIKGLLATSLLPRLRYVLEVTYPGPAVVLDILAVLIRLARHSLESATRVLECPRLIETIVREFLPTSWSPVGAGPTPSLYKVPCATAMKLLRVLASAGRNIAARLLSSFDLRSRLCRIIAEAPQELALPPEEAEMLSTEALRLWAVAASYGQGGYLYRELYPVLMRALQVVPRELSTHPPQPLSMQRIASLLTLLTQLTLAAGSTPAETISDSAEASLSATPSLVTWTQVSGLQPLVEPCLRQTLKLLSRPEMWRAVGPVPVACLLFLGAYYQAWSQQPSSCPEDWLQDMQRLSEELLLPLLSQPTLGSLWDSLRHCSLLCNPLSCVPALEAPPSLVSLGCSGGCPRLSLAGSASPFPFLTALLSLLNTLAQIHKGLCGQLAAILAAPGLQNYFLQCVAPGAAPHLTPFSAWALRHEYHLQYLALALAQKAAALQPLPATHAALYHGMALALLSRLLPGSEYLTHELLLSCVFRLEFLPERTSGGPEAADFSDQLSLGSSRVPRCGQGTLLAQACQDLPSIRNCYLTHCSPARASLLASQALHRGELQRVPTLLLPMPTEPLLPTDWPFLPLIRLYHRASDTPSGLSPTDTMGTAMRVLQWVLVLESWRPQALWAVPPAARLARLMCVFLVDSELFRESPVQHLVAALLAQLCQPQVLPNLNLDCRLPGLTSFPDLYANFLDHFEAVSFGDHLFGALVLLPLQRRFSVTLRLALFGEHVGALRALSLPLTQLPVSLECYTVPPEDNLALLQLYFRTLVTGALRPRWCPVLYAVAVAHVNSFIFSQDPQSSDEVKAARRSMLQKTWLLADEGLRQHLLHYKLPNSTLPEGFELYSQLPPLRQHYLQRLTSTVLQNGVSET [RPAP1]”, the thermal stability score in the data set on HeLa Kyoto [1] (setting [5]) stood at 0.47; in the data set with HeLa Kyoto [1] (cell cycle stage: mitosis), 0.88. Moreover, the “solubility in G1/S (log2)” value with HeLa Kyoto [2] was -0.1. Also, the melting temperature with HeLa Kyoto [3] (cell cycle stage: G1/S) amounted to 52.9 °C; in the data set with HeLa Kyoto [3] (cell cycle stage: mitosis), 51.7 °C. Moreover, the “solubility change mitosis (log2)” value in the data set with HeLa Kyoto [4] is -0.0998.
With “MLSVASRSGPFAPVLSATSRGVAGALRPLVQATVPATPEQPVLDLKRPFLSRESLSGQAVRRPLVASVGLNVPASVCYSHTDIKVPDFSEYRRLEVLDSTKSSRESSEARKGFSYLVTGVTTVGVAYAAKNAVTQFVSSMSASADVLALAKIEIKLSDIPEGKNMAFKWRGKPLFVRHRTQKEIEQEAAVELSQLRDPQHDLDRVKKPEWVILIGVCTHLGCVPIANAGDFGGYYCPCHGSHYDASGRIRLGPAPLNLEVPTYEFTSDDMVIVG [UQCRFS1]”, the thermal stability score was -1.93 in the data set on HeLa Kyoto [1] (setting [5]) and -2.28 with HeLa Kyoto [1] (cell cycle stage: mitosis). The “solubility in G1/S (log2)” value in the data set on HeLa Kyoto [2] is 0.119. Further, the values for the melting temperature with HeLa Kyoto [3] (cell cycle stage: G1/S) and in the data set with HeLa Kyoto [3] (cell cycle stage: mitosis) were 55.6 °C and 55.5 °C, respectively. Besides, the “solubility change mitosis (log2)” value in the data set with HeLa Kyoto [4] is -0.113.
Turning to “MLTKFETKSARVKGLSFHPKRPWILTSLHNGVIQLWDYRMCTLIDKFDEHDGPVRGIDFHKQQPLFVSGGDDYKIKVWNYKLRRCLFTLLGHLDYIRTTFFHHEYPWILSASDDQTIRVWNWQSRTCVCVLTGHNHYVMCAQFHPTEDLVVSASLDQTVRVWDISGLRKKNLSPGAVESDVRGITGVDLFGTTDAVVKHVLEGHDRGVNWAAFHPTMPLIVSGADDRQVKIWRMNESKAWEVDTCRGHYNNVSCAVFHPRQELILSNSEDKSIRVWDMSKRTGVQTFRRDHDRFWVLAAHPNLNLFAAGHDGGMIVFKLERERPAYAVHGNMLHYVKDRFLRQLDFNSSKDVAVMQLRSGSKFPVFNMSYNPAENAVLLCTRASNLENSTYDLYTIPKDADSQNPDAPEGKRSSGLTAVWVARNRFAVLDRMHSLLIKNLKNEITKKVQVPNCDEIFYAGTGNLLLRDADSITLFDVQQKRTLASVKISKVKYVIWSADMSHVALLAKHAIVICNRKLDALCNIHENIRVKSGAWDESGVFIYTTSNHIKYAVTTGDHGIIRTLDLPIYVTRVKGNNVYCLDRECRPRVLTIDPTEFKFKLALINRKYDEVLHMVRNAKLVGQSIIAYLQKKGYPEVALHFVKDEKTRFSLALECGNIEIALEAAKALDDKNCWEKLGEVALLQGNHQIVEMCYQRTKNFDKLSFLYLITGNLEKLRKMMKIAEIRKDMSGHYQNALYLGDVSERVRILKNCGQKSLAYLTAATHGLDEEAESLKETFDPEKETIPDIDPNAKLLQPPAPIMPLDTNWPLLTVSKGFFEGTIASKGKGGALAADIDIDTVGTEGWGEDAELQLDEDGFVEATEGLGDDALGKGQEEGGGWDVEEDLELPPELDISPGAAGGAEDGFFVPPTKGTSPTQIWCNNSQLPVDHILAGSFETAMRLLHDQVGVIQFGPYKQLFLQTYARGRTTYQALPCLPSMYGYPNRNWKDAGLKNGVPAVGLKLNDLIQRLQLCYQLTTVGKFEEAVEKFRSILLSVPLLVVDNKQEIAEAQQLITICREYIVGLSVETERKKLPKETLEQQKRICEMAAYFTHSNLQPVHMILVLRTALNLFFKLKNFKTAATFARRLLELGPKPEVAQQTRKILSACEKNPTDAYQLNYDMHNPFDICAASYRPIYRGKPVEKCPLSGACYSPEFKGQICRVTTVTEIGKDVIGLRISPLQFR [COPA]”, the thermal stability score with HeLa Kyoto [1] (setting [5]) was -0.819; with HeLa Kyoto [1] (cell cycle stage: mitosis), -0.346. Moreover, the “solubility in G1/S (log2)” value with HeLa Kyoto [2] is -0.365. Further, the melting temperature with HeLa Kyoto [3] (cell cycle stage: G1/S) is 51 °C; in the data set with HeLa Kyoto [3] (cell cycle stage: mitosis), 50.3 °C. The “solubility change mitosis (log2)” value in the data set on HeLa Kyoto [4] is -0.16.
